Reference: patent US20040161826A1, “Thermostable enzymes having aminotransferase activity, nucleic acids encoding them and methods of making and using them” (priority 1999, published 2004)

Legend:
[1] = molecular target: aromatic amino acid aminotransferase (Pyrococcus horikoshii, UniProt O59096); experiment: Amino group transfer reaction with phenylalanine as donor, phenylpyruvic acid traced at 280 nm; format: biochemical, Pyrococcus horikoshi; conditions: receptor 2-ketoglutaric acid, pH 8.0, 25° C.
Procedure: Then, kinetic parameters of each substrate were compared. […] Next, a change in the amount of NADH was traced with a change in absorbance at 340 nm, and then kinetic parameters, Kcat and Km values were measured.
When hydrophobic substrate (phenylalanine) was used as an amino group donor, the amount of reaction product (phenylpyruvic acid) was traced with a change in absorbance at 280 nm, and then Kcat and Km values were measured.

[2] = substrate: N[C@@H](CC(=O)O)C(=O)O; experiment: purified protein, by the assay type; conditions: other: amino group donor aspartic acid, receptor 2-ketoglutaric acid, pH 8.0, 25° C.
[3] = Isoelectric focusing; format: physicochemical, Pyrococcus horikoshi
[4] = Thermal stability: differential scanning calorimeter (DSC); format: physicochemical, Pyrococcus horikoshi
Procedure: Thermal stability was analyzed by measurement of residual activity after heating and with a differential scanning calorimeter (DSC).
In measurement with DSC, a DSC (type CSC5100™, Calolimetry Science) was used. Cell temperature was increased from 0 to 125° C. (1 K/min), and then a change in thermal capacity of the enzyme protein in 20 mM phosphate buffer (pH6.5) was measured. Enzyme concentration employed was 1 mg/ml.

[5] = pH stability by circular dichrograph (CD); format: physicochemical, Pyrococcus horikoshi; conditions: 25° C.
Procedure: pH stability was analyzed using a circular dichrograph (CD, type J-720W, JASCO Corporation). The pH of an enzyme solution (0.1 mg/ml) was varied from 1.0 to 13.0, a change in intensity of negative ellipicity[q] at 25° C. was measured, so that pH stability was found.

[6] = Optimum temperature and optimum pH from Kapp, DTNB reduction traced at 412 nm; format: biochemical, Pyrococcus horikoshi; conditions: substrates L-cysteic acid and 2-ketoglutaric acid
Procedure: The presence of aminotransferase activity can be determined by any means.
Optimum temperature and optimum pH were measured as described below using L-cysteic acid and 2-ketoglutaric acid as substrates. Optimum temperature was determined according to the temperature dependence of the Kapp value which was determined by varying the reaction temperature from 30° C. to 98° C. in 50 mM phosphate buffer (pH6.5), tracing an increase in absorbance at 412 nm resulting from reduction of 5,5′-Dithiobis ([…]) (DTNB), finding Kapp value from the initial velocity.
Optimum pH was determined according to pH dependence of the Kapp value which was determined under the measurement conditions as described above by maintaining the reaction temperature at 90° C., and varying the pH of an enzyme reaction solution from 3.4 to 7.5, finding Kapp.

[7] = Thermal stability: residual activity after heating; format: physicochemical, Pyrococcus horikoshi; conditions: pH 6.5, 95° C. for 6 hours, 0.1 mg/ml in 20 mM phosphate buffer
Procedure: Thermal stability was analyzed by measurement of residual activity after heating and with a differential scanning calorimeter (DSC). To measure residual activity after heating, this enzyme (0.1 mg/ml) was heated for a certain period of time at 95° C. and at 110° C. in 20 mM phosphate buffer (pH6.5) and quenched. Then, residual activity was measured.

Question: Which Kcat [1] does the source give for N[C@@H](Cc1ccccc1)C(=O)O [phenylalanine] here?
Answer: 12 s⁻¹

B1: aromatic amino acid aminotransferase (Pyrococcus horikoshii OT3) (protein)
chain: MALSDRLELVSASEIRKLFDIAAGMKDVISLGIGEPDFDTPQHIKEYAKEALDKGLTHYGPNIGLLELREAIAEKLKKQNGIEADPKTEIMVLLGANQAFLMGLSAFLKDGEEVLIPTPAFVSYAPAVILAGGKPVEVPTYEEDEFRLNVDELKKYVTDKTRALIINSPCNPTGAVLTKKDLEEIADFVVEHDLIVISDEVYEHFIYDDARHYSIASLDGMFERTITVNGFSKTFAMTGWRLGFVAAPSWIIERMVKFQMYNATCPVTFIQYAAAKALKDERSWKAVEEMRKEYDRRRKLVWKRLNEMGLPTVKPKGAFYIFPRIRDTGLTSKKFSELMLKEARVAVVPGSAFGKAGEGYVRISYATAYEKLEEAMDRMERVLKERKLV
Question: For B1, which kcat [2] is on record?
Answer: 0.18 s⁻¹

Question: What about the kcat/Km [2] of the same molecule?
Answer: 1.7 M⁻¹ s⁻¹

B2: this enzyme: thermostable aminotransferase of Pyrococcus horikoshi JCM9974, 388 residues, homodimeric, expressed recombinantly in E. coli (protein, listed as Pyrococcus horikoshi)
chain: B1 chain
Question: Which results are given for B2?
Answer: isoelectric point [3]: 5.2; denaturation ([4]; DSC, pH 6.5): irreversible; enthalpy change ([4]; at the melting temperature, pH 6.5): 574 kcal/mol; melting temperature (Tm value) ([4]; pH 6.5, 20 mM phosphate buffer, 1 mg/ml, 1 K/min): 120.1 °C; pH range over which the enzyme remains stable ([5]; for 24 hours or more, 0.1 mg/ml): 4 to 11; a-helix content ([5]; pH 6.5): 40%; optimum temperature ([6]; 50 mM phosphate buffer pH 6.5, 30° C. to 98° C.): 90 °C; optimum pH ([6]; 90° C., pH 3.4 to 7.5): 6.0; Kapp value ([6]; pH 6.5, 90° C.): 139 s⁻¹; residual activity after heating [7]: remained stable, or was not deactivated
